B1: GFP lamin A WT [human] / GST Nesprin-2 SR52,53 [human] (parent complex)
chain 1: METPSQRRATRSGAQASSTPLSPTRITRLQEKEDLQELNDRLAVYIDRVRSLETENAGLRLRITESEEVVSREVSGIKAAYEAELGDARKTLDSVAKERARLQLELSKVREEFKELKARNTKKEGDLIAAQARLKDLEALLNSKEAALSTALSEKRTLEGELHDLRGQVAKLEAALGEAKKQLQDEMLRRVDAENRLQTMKEELDFQKNIYSEELRETKRRHETRLVEIDNGKQREFESRLADALQELRAQHEDQVEQYKKELEKTYSAKLDNARQSAERNSNLVGAAHEELQQSRIRIDSLSAQLSQLQKQLAAKEAKLRDLEDSLARERDTSRRLLAEKEREMAEMRARMQQQLDEYQELLDIKLALDMEIHAYRKLLEGEEERLRLSPSPTSQRSRGRASSHSSQTQGGGSVTKKRKLESTESRSSFSQHARTSGRVAVEEVDEEGKFVRLRNKSNEDQSMGNWQIKRQNGDDPLLTYRFPPKFTLKAGQVVTIWAAGAGATHSPPTDLVWKAQNTWGCGNSLRTALINSTGEEVAMRKLVRSVTVVEDDEDEDGDDLLHHHHGSHCSSSGDPAEYNLRSRTVLCGTCGQPADKASASGSGAQVGGPISSGSSASSVTVTRSYRSVGGSGGGSFGDNLVTRSYLLGNSSPRTQSPQNCSIM
chain 2: SRFEDWLKSAERTAACPNSSEVLYTSAKEELKRFEAFQRQIHERLTQLELINKQYRRLARENRTDTASRLKQMVHEGNQRWDNLQRRVTAVLRRLRHFTNQREEFEGTRESILVWLTEMDLQLTNVEHFSESDADDKMRQLNGFQQEITLNTNKIDQLIVFGEQLIQKSEPLDAVLIEDELEELHRYCQEVFGRVSRFHRRL

Variants of: B1
Assay: GST pull-down, western blot quantification; COS7 cell lysates; four to seven independent experiments; parent: 0; read off a plot
For chain 1 R401C, the screen value was about 51%.
With chain 1 R427G the screen value was about -15%.
Work on chain 1 V415I yielded a screen value of about 55%.
chain 1 R419C was tested, and the screen value was about -10%.
For chain 1 G411D, the screen value was about 11%.
Variant chain 1 L421P has a screen value of about -29%.
For chain 1 G413C, the screen value was about -22%.
